In patent publication US20190315842A1 (DUKE UNIVERSITY, published 2019):
Where no end group is shown, it is not given here. The star is where a group is joined. Biotin = O=C1N[C@H]2[C@H](CS[C@H]2CCCCC(=O)*)N1

T1: GPPPPIDNGDITSFP(GGGK-biotin)
T1 construct: also called biotinylated 15-mer peptide; biotinylated 19-mer
T1 peptide: GPPPPIDNGDITSFPGGGK(Biotin)


Target: T1, GPPPPIDNGDITSFP(GGGK-biotin)
Experiment: ELISA: biotinylated peptide captured on immobilized Neutravidin, antibody at 0.5 µg/ml, anti-human IgG-HRP/ABTS, OD 405 nm

Row | binding result | Binder
1 | binds | 7971/6005 (antibody, V domains shown, also called clone 14; H007971/K006005) VH: LVESGGGVVQPGRSLRLSCAASGFTFSRYGMHWVRQAPGKGLEWVAVMSYDGSTKYYADSVKGRFAISRDNPKNTLFLQMNSLRPDDTAVYYCAKGGAAAAVMDVWGKGTTVTVSS VL: MTQSPDSLTVSLGERATISCKSSQRLLYSSNNKNYLAWYQQKPGQPPKLLMYWASTRESGVPDRFSGSGSGTDFSLTISSLQAEDVAVYYCQQYYNPPWTFGQGTKVEVK
2 | binds | 7967/6002 (antibody, V domains shown, also called clone 8; H007967/K006002) VH: LVESGGGVVQPGKSLRLSCVASGFSFSTYGMHWVRQAPGKGLEWVAVMSFDGKTKYYADSVKGRFTISRDNPKNTLYLQMNSLRSEDTAVYYCAKGGAAAAVFDSWGPGILLTVSS VL: MTQSPNSLAVSLGGRATINCKASQSILYRSNNKNYLAWYQHKAGQPPKLLIYWASTRESGVPERFSGSGSRTDFTLTINGLQAEDVAVYYCQQYYNPPWTFGQGTKVEIK
3 | binds | 7965/6000 (antibody, V domains shown, also called clone 12; H007965/K006000) VH: LVESGGGVVQPGKSLRLSCVASGFTFSSYGMHWVRQAPGKGLEWVAVMSFDGKTKYYADSVKGRFTISRDNPKNTLYLQMNSLRSEDTAVYYCAKGGAAAAVFDSWGQGILLTVSS VL: MTQSPNSLAVSLGGRATINCKTSQSILYRSNNKNYLAWYQHKSGQPPKLLIYWASTRESGVPDRFSGSGSRTDFTLTISGLQAEDVAVYYCQQYYNPPWTFGQGTKVEIK
4 | binds | 7958/5992 (antibody, V domains shown, also called clone 4; H007958/K005992) VH: LVESGGGVVPPGKSLRLSCAASGFTFSLYGIHWVRQAPGKGLEWVAVISYDGNTKYYTDSVKGRFTISRDNAKNTIYLQMNSLRLDDTAVYYCAKGAANSATFDFWGRGTMVTVSS VL: MTQSPDSLTLSLGERATINCRSSRTVLYRSNNKNYLAWYQHKPGQPPKLLMSWASTRETGVPDRFSGSGSGTHFTLTITSLQPEDVAVYYCQQYYSPPWTFGQGTKVEIR
5 | binds | 7982/6018 (antibody, V domains shown, also called clone 6; H007982/K006018) VH: LVESGGGVVPPGKSLRLSCAASGFTFSLYGIHWVRQAPGKGLEWVAVISYDGNTKYYTDSVKGRFTISRDNAKNTIYLQMNSLRLDDTAVYYCAKGAANSATFDFWGRGTMVTVSS VL: MTQSPDSLTLSLGERATINCRSSRTVLYRSNNKNYLAWYQHKPGQPPKLLMSWASTRETGVPDRFSGSGSGTHFTLTITSLQPEDVAVYYCQQYYSPPWTFGQGTKVEIR
6 | binds | 7963/5998 (antibody, V domains shown, also called clone 5; H007963/K005998) VH: LVESGGGVVPPGKSLRLSCAASGFTFSLYGIHWVRQAPGKGLEWVAVISYDGNTKYYTDSVKGRFTISRDNAKNTIYLQMNSLRLDDTAVYYCAKGAANSATFDFWGRGTMVTVSS VL: MTQSPDSLTLSLGERATINCRSSRTVLYRSNNKNYLAWYQHKPGQPPKLLMSWASTRETGVPDRFSGSGSGTHFTLTITSLQPEDVAVYYCQQYYSPPWTFGQGTKVEIR
7 | binds | 7983/6019 (antibody, V domains shown, also called clone 15; H007983/K006019) VH: EVQLVESGGGVVQPGRSLRLSCAASGFTFNRFGMHWVRQRQVPGKGLEWVAVISYDDNTKYYADSVKGRFTISRDNNKSTLYLQMSSLRVEDTAVYFCAKGSTAAAVLDYWGQGTLVTVSS VL: DIVMTQSPDSLTLSLGERATINCKSSQSLFYRSNNKSYLAWYQQKPGQPPKLLIYWASVRESGVPDRFTGSGSVTDFTLTISSLRAEDVAVYYCQQYFTTPLTFGGGTKVAIK
